For assay [1], the target named is PP2Ac C-terminal peptide L309, ac-…-OH (unmodified) (human). The assay can be described thus: ELISA, peptide coated at 2 µg/ml, antibody 1 µg/ml.
Assay [2] deals with PP2Ac C-terminal peptide pT304-meL309, ac-HVTRRpTPDYFL-CH3 (human). The assay can be described thus: ELISA, peptide coated at 2 µg/ml, antibody 1 µg/ml, values normalized to L309, N=6. A general note: ELISA stands for enzyme-linked immunosorbent assay.
For assay [3], the target named is PP2Ac C-terminal peptide pT304-L309, ac-HVTRRpTPDYFL-OH (human). The description is as above.
Assay [4] deals with PP2Ac C-terminal peptide meL309, ac-…-CH3 (α-carboxymethylated) (human). The description is as above.
The target of assay [5] is PP2Ac C-terminal peptide pY307-meL309, ac-HVTRRTPDpYFL-CH3 (human). The assay is described as above.
Assay [6] addresses T1, C-terminal PP2Ac peptides L309, Y307F, pY307, meL309 (Homo sapiens, UniProt P67775).
T1 construct: coated with C-terminal PP2Ac peptides either free or linked to BSA; BSA (carrier)
The assay can be described thus: ELISA with CGEPHVTRRTPDYFL peptides free or linked to BSA (scFv and recombinant 7C10-C5). Type of assay: binding. Conditions: for recognition of meL309 versus non-carboxymethylated peptides: peptides free or linked to BSA. The method, then:
Nunc Medisorp 96-well ELISA flat-bottom plates were coated with C-terminal PP2Ac peptides either free or linked to BSA. Specifically, the peptides were: unmodified L309 (CGEPHVTRRTPDYFL) (SEQ ID NO:49), Y307F (CGEPHVTRRTPDFFL) (SEQ ID NO:50), pY307 (CGEPHVTRRTPDpYFL) (SEQ ID NO:51) or carboxymethylated meL309 (CGEPHVTRRTPDYFL-CH3) (SEQ ID NO:49), on the ELISA plate at 8 μg/ml in TBS (free) or 1 μg/ml in TBS (linked to BSA) at 4° C. overnight. After washing twice with TBS, the wells were incubated with 2% BSA in TBS for 1 h at RT. After washing once with TBS, the wells were incubated with single clone hybridoma cell culture supernatant, clone 7C10-C5 1:50 (7C10 X63), recombinant single chain variable fragment of antibody 7C10-C5, undiluted (7C10 scFvs), or recombinant bivalent single chain variable fragment of antibody 7C10-C5, undiluted (7C10 bi-scFvs). After washing 3× with TBS, wells incubated with recombinant antibodies were incubated with monoclonal antibody 16B12, 1:10000 (recognizing the hemagglutinin tag on the recombinant antibody) in 1% BSA TBS 1 h at room temperature. After washing 3× in TBS, incubation with anti-mouse-HRP coupled secondary antibody for 1 h at RT was performed. Bound antibodies were detected by colorimetric reaction with 3,3′,5,5′-Tetramethylbenzidine as substrate, and absorbance was measured at 450 nm. Values were normalized to meL309 which was arbitrarily set to 1. Average and standard deviation of N=3 experiments are shown.
Nunc Medisorp 96-well ELISA flat-bottom plates were coated with peptides either free or linked to BSA, L309 (CGEPHVTRRTPDYFL) (SEQ ID NO:49) or meL309 (CGEPHVTRRTPDYFL-CH3) (SEQ ID NO:49), on the ELISA plate at 0.5 μg/ml in TBS (free) or […] in TBS (linked to BSA) at 4° C. over night. After washing twice with TBS, the wells were incubated with 2% BSA in TBS for 1 h at RT. After washing once with TBS, the wells were incubated with single clone hybridoma cell culture supernatant, clone 7C10-C5 1:50 (7C10 X63), or recombinant antibody 7C10-C5 undiluted (rec 7C10). After washing 3× with TBS, incubation with anti-mouse-HRP coupled secondary antibody for 1 h at RT was performed. Bound antibodies were detected by colorimetric reaction with 3,3′,5,5′-Tetramethylbenzidine as substrate, and absorbance was measured at 450 nm. Values were normalized to meL309 incubated with 7C10 X63, which was arbitrarily set to 1. Average and standard deviation of N=3 experiments are shown (FIG. 30).

For assay [7], the target named is PP2Ac peptides L309, Y307F, pY307, meL309 crosslinked to BSA (Homo sapiens, UniProt P67775). The assay can be described thus: Western blot of BSA crosslinked PP2Ac peptides (scFv 7C10-C5). Type of assay: binding. As to conditions: 100 ng BSA crosslinked peptides. As to the method: 100 ng of BSA crosslinked with peptides (L309: CGEPHVTRRTPDYFL (SEQ ID NO:49), Y307F: CGEPHVTRRTPDFFL (SEQ ID NO.50), pY307: CGEPHVTRRTPDpYFL (SEQ ID NO:51) or meL309: CGEPHVTRRTPDYFL-CH3) (SEQ ID NO:49) was separated by 10% SDS-PAGE and transferred to nitrocellulose membrane (0.2 μm, GE Healthcare). Of note, the Y307F peptide cannot be phosphorylated at position 307 due to the presence of a phenylalanine. The membranes were blocked in 3% non-fatty dry milk (NFDM) in TBS-Tween for 1 h at RT and incubated with single clone hybridoma cell culture supernatant, clone 7C10-C5 diluted 1:100 in 0.5% NFDM in TBS-T (7C10 X63), recombinant single chain variable fragment of antibody 7C10-C5, undiluted (7C10 scFvs), recombinant bivalent single chain variable fragment 7C10-C5, undiluted (7C10 bi-scFvs) or single clone hybridoma cell culture supernatant, clone 1D7 (binding to non-carboxymethylated PP2Ac) 1:100 in 0.5% NFDM in TBS-T o/n at 4° C. After washing 3×5 min in TBS-T, blots incubated with recombinant antibodies were incubated with mouse anti-HA monoclonal antibody 16B12 (recognizing the hemagglutinin (HA) tag on the recombinant antibody), 1:10000 in 0.5% NFDM in TBS-T 2 h at room temperature. After washing 3×5 min in TBS-T, incubation with anti-mouse-HRP coupled secondary antibody for 1 h at RT and 3×10 min washes in TBS-T was performed. […] Signals were detected by exposure of X-ray films. […]
In general terms: A western blot detects proteins with antibodies after separation by electrophoresis.

“mouse monoclonal antibody 4B7 (SCBT, sc-13601, lot 0716)” registered a fold higher ELISA signal intensity than with the α-carboxymethylated counterpart (meL309) in assay [1] of 8 fold. In assay [2], this molecule had a fold-change of ELISA signal, pT304-L309 over pT304-meL309 of 7.39 fold. This molecule also gave a fold-change of ELISA signal, L309 over pT304-L309 in assay [3] of 1.75 fold. The molecule further showed a fold-change of ELISA signal, L309 over meL309 in assay [4] of 8.27 fold. In addition, the fold-change of ELISA signal, pY307-L309 over pY307-meL309 in assay [5] was 8.27 fold.

B1: monovalent scFv 7C10-C5: recombinant monovalent single chain variable fragment of antibody 7C10-C5 (SEQ ID NO:42) (protein)
scFv: MDMRVPAQLLGLLLLWLSGARCDVLMTQTPLSLPVSLGDQASISCRSSQSIVHSNGNTYLEWYLQKPGQSPKLLIYKVSNRFSGVPDRFSGSGSGTDFTLKINRVEAEDLGVYYCFQGSHVPWTFGGGTKLEIKSSGGGGSGGGGGGSSRSSLDVQLQESGPGLVKPSQSLSLTCSVTGYSITSGYYWNWIRQFPGNKLEWMGYISYDGSNNYNPSLKNRISITRDTSKNQFFLKLNSVTTEDTATYYCAGRFAYWGQGTLVTVSAAKTTPPSVTSGQAGQHHHHHHGAYPYDVPDYAS
modifications: recombinant monovalent scFv antibody
On to B1, for which the “recognition of meL309 versus non-carboxymethylated peptides” value in assay [6] was “specifically recognized the carboxymethylated meL309 peptide, but none of the non-carboxymethylated peptides”; in assay [7], “specifically recognized the carboxymethylated meL309 peptide, but none of the non-carboxymethylated peptides”.

B2: bivalent scFv 7C10-C5: recombinant bivalent single chain variable fragment of antibody 7C10-C5 (SEQ ID NO:44) (protein)
scFv: MDMRVPAQLLGLLLLWLSGARCDVLMTQTPLSLPVSLGDQASISCRSSQSIVHSNGNTYLEWYLQKPGQSPKLLIYKVSNRFSGVPDRFSGSGSGTDFTLKINRVEAEDLGVYYCFQGSHVPWTFGGGTKLEIKSSGGGGSGGGGGGSSRSSLDVQLQESGPGLVKPSQSLSLTCSVTGYSITSGYYWNWIRQFPGNKLEWMGYISYDGSNNYNPSLKNRISITRDTSKNQFFLKLNSVTTEDTATYYCAGRFAYWGQGTLVTVSAAKTTPPSVGSGSGSGSGSGSGSGSGSGSGSGSGSGSGSDVLMTQTPLSLPVSLGDQASISCRSSQSIVHSNGNTYLEWYLQKPGQSPKLLIYKVSNRFSGVPDRFSGSGSGTDFTLKINRVEAEDLGVYYCFQGSHVPWTFGGGTKLEIKSSGGGGSGGGGGGSSRSSLDVQLQESGPGLVKPSQSLSLTCSVTGYSITSGYYWNWIRQFPGNKLEWMGYISYDGSNNYNPSLKNRISITRDTSKNQFFLKLNSVTTEDTATYYCAGRFAYWGQGTLVTVSAAKTTPPSVTSGQAGQHHHHHHGAYPYDVPDYAS
modifications: recombinant bivalent scFv antibody
For B2, in assay [6], the “binding to meL309 peptide, bivalent versus monovalent scFv” value is “bound stronger to the meL309 peptide than the monovalent scFv” and the “recognition of meL309 versus non-carboxymethylated peptides” value is recorded as “specifically recognized the carboxymethylated meL309 peptide, but none of the non-carboxymethylated peptides”. The “recognition of meL309 versus non-carboxymethylated peptides” value in assay [7] was “specifically recognized the carboxymethylated meL309 peptide, but none of the non-carboxymethylated peptides”.

The values above are taken from patent publication US20230121197A1, “ANTIBODIES SPECIFICALLY BINDING THE CARBOXYMETHYLATED CATALYTIC SUBUNIT OF PROTEIN PHOSPHATASE 2A” (Medizinische Universität Wien, priority 2020, published 2023).
